Assay results published in patent US20200282010A1, “IMMUNOGENIC COMPOSITIONS AND USES THEREFOR” (Epiaxis Therapeutics Pty Ltd, priority 2017, published 2020).

Target: T1, PKC-ε (Homo sapiens, UniProt Q02156)
T1 construct: endogenous in cells; host or cells: MCF7
T1 sequence (Q02156 1-737): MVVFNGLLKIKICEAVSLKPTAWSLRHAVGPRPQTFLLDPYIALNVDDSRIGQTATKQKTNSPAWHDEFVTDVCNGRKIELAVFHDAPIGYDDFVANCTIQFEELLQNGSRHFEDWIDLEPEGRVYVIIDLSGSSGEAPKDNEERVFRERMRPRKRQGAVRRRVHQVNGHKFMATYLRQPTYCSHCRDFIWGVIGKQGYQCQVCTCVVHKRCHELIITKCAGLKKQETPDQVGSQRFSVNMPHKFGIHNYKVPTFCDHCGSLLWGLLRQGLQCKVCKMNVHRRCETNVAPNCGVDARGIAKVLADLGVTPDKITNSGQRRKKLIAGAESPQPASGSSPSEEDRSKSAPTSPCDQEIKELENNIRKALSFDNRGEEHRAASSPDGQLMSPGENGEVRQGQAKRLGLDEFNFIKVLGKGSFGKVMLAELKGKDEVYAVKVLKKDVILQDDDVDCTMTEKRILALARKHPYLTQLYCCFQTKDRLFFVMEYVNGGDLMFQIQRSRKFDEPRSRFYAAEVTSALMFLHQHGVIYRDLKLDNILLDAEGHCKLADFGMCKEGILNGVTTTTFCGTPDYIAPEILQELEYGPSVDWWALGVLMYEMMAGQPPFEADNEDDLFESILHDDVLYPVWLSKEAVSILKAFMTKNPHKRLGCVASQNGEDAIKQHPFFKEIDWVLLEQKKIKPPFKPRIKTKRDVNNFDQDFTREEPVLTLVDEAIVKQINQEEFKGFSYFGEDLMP
Experiment: Nuclear localization of PKC-ε (Fn/c, immunofluorescence), specificity
Format: cell-based
Conditions: MCF7 breast cancer cell line; FIG. 1D
Text: FIG. 1 is a graphical, schematic and photographic representation showing that PKC-θ can be targeted for therapeutic intervention. A) Depicts the strength of binding of recombinant purified His6-PKC-θ to increasing concentrations of different subunits and subunit combinations (α2, α2β1, and β1) of the importin α/β heterodimer nuclear transport receptor using an AlphaScreen® binding assay as described in Wagstaff et al. (2011. Journal of Biomolecular Screening 16 (2):192-200). B-C) Depicts protein structure of PKC-θ indicating binding locations for the PKC-θ peptide inhibitor, PKCθi (RKEIDPPFRPKVK), including the nuclear localization sequence (NLS) of PKC-θ. D) The specificity of PKCθi was examined on cells treated with this peptide inhibitor. Cells were screened with primary antibodies to PKC-θ (T538p), PKC-β2, PKC-β1, PKC-α, PKC-ε and PKC-γ. The nuclear to cytoplasmic fluorescence ratio (Fn/c) using the equation: Fn/c=(Fn−Fb)/(Fc−Fb), where Fn is nuclear fluorescence, Fc is cytoplasmic fluorescence, and Fb is background fluorescence was used to determine the impact on nuclear translocation/localization. […] EC^50 of inhibitors calculated using GraphPad PRISM software. F) The PKC-θ kinase activity was measured using the PKC kinase activity kit from ENZO life sciences and recombinant PKC-θ; C27 is an inhibitor of PKC-θ kinase activity, which is disclosed in Jimenez et al. (2013. […]

## RKEIDPPFRPKVK [PKCθi]
  nuclear localization of PKC-ε: no effect
